Experimental data as given in patent US20090075929.

How the values were obtained:
[1] = system: GST-MADD70A (S70A)
[2] = system: GST-MADD173A (T173A)
[3] = system: GST-wtMADD (bacterially expressed, purified)
[4] = system: GST-MADD1041A (T1041A)

recombinant Akt (rAkt; protein kinase B)
in vitro phosphorylation (32P autoradiography) [1]: The phosphorylation levels of MADD mutants including MADD70A, MADD173A and MADD1041A were reduced or absent | in vitro phosphorylation (32P autoradiography) [2]: The phosphorylation levels of MADD mutants including MADD70A, MADD173A and MADD1041A were reduced or absent | in vitro phosphorylation (32P autoradiography) [3]: recombinant wild-type MADD (wtMADD) was phosphorylated by Akt | in vitro phosphorylation (32P autoradiography) [4]: The phosphorylation levels of MADD mutants including MADD70A, MADD173A and MADD1041A were reduced or absent
